Here are results for 1 substance from paper PMC8002387.

In this test the target is QtEnc^FLAG (encapsulin shell protein from Quasibacillus thermotolerans with a C-terminal FLAG tag) (Quasibacillus thermotolerans).

As for “DD-mScarlet-I-QtSig (destabilized fluorescent cargo protein)”, the mScarlet-I fluorescence (RFP channel) of HepG2 cells coexpressing QtEnc^FLAG and the degron-tagged cargo; share of fluorescent cells; cells with the cargo alone gave a weak background signal is 20 % of cells.
